PMC12817906, “SVCV phosphoprotein hijacks phase separation to immobilize the IRF3-TBK1 signaling axis and suppress interferon antiviral immunity” (Journal of Virology, 2025)
Values joined by “and” are separate entries in the source; they are usually repeats but may differ in a detail not shown here. Identical values can stand only once.

Tests used:
[1] = target: purified recombinant zebrafish IRF3 (His-tagged) (zebrafish); experiment: MST; Monolith NT.115; homotypic titration (SVCV-P with SVCV-P, IRF3 with IRF3), labeled protein with unlabeled ligand at 16 concentrations, room temperature; which label was used is not told
[2] = target: mCherry-tagged zebrafish TBK1 protein (zebrafish); experiment: MST; Monolith NT.115; mCherry-tagged TBK1 as the fluorescent protein, unlabeled SVCV-P or IRF3 at 16 concentrations, protein storage buffer, room temperature 10 min, 40% LED, medium MST power
[3] = target: the molecule itself; experiment: MST; Monolith NT.115; homotypic titration (SVCV-P with SVCV-P, IRF3 with IRF3), labeled protein with unlabeled ligand at 16 concentrations, room temperature; which label was used is not told
[4] = target: T1, mCherry-tagged zebrafish TBK1 protein (zebrafish, UniProt A0ACM8QAS8 1-727); experiment: MST; Monolith NT.115; mCherry-tagged TBK1 as the fluorescent protein, unlabeled SVCV-P or IRF3 at 16 concentrations, protein storage buffer, room temperature 10 min, 40% LED, medium MST power; settings: both partners purified
T1 construct: also called mCherry-TBK1; pFastBac1-mCherry-His-TBK1; source: Sf9 (baculovirus), purified (Ni-NTA)
T1 sequence: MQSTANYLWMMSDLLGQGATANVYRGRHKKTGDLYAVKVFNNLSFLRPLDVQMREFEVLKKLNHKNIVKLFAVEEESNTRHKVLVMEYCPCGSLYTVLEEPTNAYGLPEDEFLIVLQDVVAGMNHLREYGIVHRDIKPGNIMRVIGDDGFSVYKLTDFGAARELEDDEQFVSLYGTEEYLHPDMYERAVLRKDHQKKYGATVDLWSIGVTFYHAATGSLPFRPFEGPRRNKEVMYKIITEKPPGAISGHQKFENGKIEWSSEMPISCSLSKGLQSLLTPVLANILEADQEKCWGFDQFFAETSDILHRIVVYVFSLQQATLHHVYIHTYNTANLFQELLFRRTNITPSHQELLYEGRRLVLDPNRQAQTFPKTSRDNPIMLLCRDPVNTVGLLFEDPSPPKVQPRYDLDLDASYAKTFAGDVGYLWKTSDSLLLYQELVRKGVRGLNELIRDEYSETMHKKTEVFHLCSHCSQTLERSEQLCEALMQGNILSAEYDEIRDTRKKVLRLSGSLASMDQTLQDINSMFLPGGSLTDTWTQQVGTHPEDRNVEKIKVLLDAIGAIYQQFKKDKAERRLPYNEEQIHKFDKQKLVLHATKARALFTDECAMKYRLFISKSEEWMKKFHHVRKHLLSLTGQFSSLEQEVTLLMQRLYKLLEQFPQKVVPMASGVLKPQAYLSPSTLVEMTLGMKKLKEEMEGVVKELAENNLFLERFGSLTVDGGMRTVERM

For “purified recombinant zebrafish IRF3 (His-tagged) (natural protein)”, the Kd [1] was 70 µM and the Kd [2] was 81.7 µM.

B1: purified recombinant SVCV-P (His-tagged) (natural protein)
chain: MSLHSKLSESLKAYADLDKTVKEIEEQVSSMEEPVPKTVKYVTFEENLSEEEWESDSGDDDEDSIDDSLIPDYLRESSSITVDEDEEDQKEDMEEHLPTVSWEEEPTGIDIGFGPGIVMPSVSNHEGGTYVRYNGLGGVDPNCKDLISKMMRSLIGQIGNKYGYDIDLFDYQGDFLEVFLPHKPSKEDVRPDIRIGKKNEEGTSKQVSKPRGKEKIVLKTGDECGRFPMNKEAKKREPEGLWEVMKVLSVQFDPWKEDEPPLSLTIRDLFISESEFRLHCNHSQTEREMALVGIKLRRLYNKLYQKYRL
notes: phosphoprotein (P) of spring viremia of carp virus; The MST methods say only 'purified SVCV-P'; the His-only construct is surmised (EGFP-GST, EGFP-His and baculovirus EGFP-His forms were also made); also called pET28a-SVCV-P-His; source: E. coli BL21 (DE3), purified (Ni-NTA)
In the case of B1, the Kd [3] is reported as 30.4 µM and the Kd [4] is reported as 8.34 µM and 2.98 µM.
